Assay: soluble on expression in E. coli; label from the status in PepcDB or PDB records

Row | Sequence | soluble on expression in E. coli
1 | MGSDKIHHHHHHLAKAELTQIPVSQMVIGLTVKLPLSWTNHPFFRSKVKLEQQVQIEMIKGLDVSFVYVIEGHDLLPHVSEPVEIEQPEEVVEQEIDYRPLAKKSMRISQQRFVKSVNDSRTVFGKIVSDPEGAYREAATLVEDLVDHLYESETPQLTIVGSGEIDVSVTQHGISVAVLSMMIAHSLVLSKKDVRDIALGSLFHDIGKLKVPDAIRRKKRGDLSDHEINFLKMHPNFGYDMLNRTGLFPEAMLDIVLHHHEFIDGSGFPNQLTEAKILLTTQVVSLANDYETLLNLHRTPQIALGILFKTHSGKHADNLIAVLVKILGIYPPGTIVRLTDDSIAKVMMTTADVKQPHVWSCNLSGGEPSFRFLINEDVQVQEVMKLDELTDGAVKTLQANNPISFYFNNFDH | not soluble
2 | MGSDKIHHHHHHLEKAALILEGGALRSFFTSAVLDYFLEKQMDFEYIHGVSAGTMAAMNYISKQKRRSADVNLHFLHDKRYIGFNNLIRNGGIFNLDFLFSPECYDYSPFDYKAYNESKQIFEITATNVLTGKADIFRKTDTDGQEEAVKASASMPLVSDIRVVNHQPYLDGGIADSIPFRRAQELGYEKIVVVLTRDISYRKPENSRAMNRLVKFRYRDFPRFVQAFADRPQQYNRSLAEIERLEREGKIFVIRPQEPVSVSRVERDDKKLMALYEKGTEVIQNQFADLQKYLAQ | not soluble
3 | MGSDKIHHHHHHLKKQAVVIGAGLAGMSAAIRLAGDGYEVTMLEQNGNVGGKLNQRSGQGFTFDTGPSILTMPWVLEQLFTSVHRRLDDYLEIERIEPQWRTFFEDGTQLDVKGDLPGMLEEFKKVSDQADFVELFSYSKKMYDLCLDSFYKYSLEDLKDLKKYHTMSELLKMDPLNTVASGTKKHLNNKYLEQLFNYMVMYVGSNPYEAPAVFNQMIYVQMGLGIYYVKGGMYNIARAMKTVLDELRVTIHVNTPVARVVTEGKRAIGVETTDGTFYPADVVVSNLEVIPTYQHLISEKKGPKQAKKLNQSFVPSVSGLVLLLGVNREYKDLKHHNFFFSDDPEREFAQMFKDGVPPEDPTIYVGVSSKSDASQAPEGKDNLFVLTHVPPLTKQDGKTDWDAYREVVLDKLERMGLTDLRESIEFEYRFTPEDLKSLYGPNGGSIYGVAADRKKNGGFKIPSKSDLYEGLYFVGGSTHPGGGVPMVTLSGQLTADLIQKHEKVKA | not soluble
4 | MGSDKIHHHHHHLKNELAVIDIGSNSIRYVIFHPIDSGRYIEKINVKVVARLSAHIDAEGALDSVGIRLLCETLQRFHEIGITHHVEETICVATAAIRNASNRQDIVHAVEQETPFTMRVLSDEQEAYYGYFAIINSTFLTDGYSVDIGGGSMEVTLIENREMIAYHSFPFGAVTLTRQFLSGETMTSGEQKKLIKFLREQFDEIPWLKNKKLPLIGVGGSARNFVRIHQSTLDYPLHGIHQYQVRSKELGKLIDELEDKAPKQLMKVEGLSKDRVDIFLPALIAIHELALHIEAEQFVMSNYGLREGLVYEYDLHEQEQRRIENVREESLYQLESDYKVNRDRMNYLGTIAKSIYRQLVTLDIIPNRAADLRLLDSASRLLYCGQYINPDTRSNQTFYLLTNTDLKGMTHKDRLALALVSSYSSSKRIQQLLKPFKDWFTDKSIERFDLLGSILKLTEALDVTERRAVDSLEIALEKDKKDLRIILDTGDHDYGFEVEKAEKQKKHLERIIDRSIQFDNKGGGLT | not soluble
5 | MGSDKIHHHHHHLNNQIKIFEGNKIRSIWDNEKEEWYFSVVDVVAVLTESKDPQVYWRVLKKRLKEEGNKTVTNCNALKMKAADGKMRLTDVADMQGIFRIIQSVPSPKAEPFKMWLAEVGKERIDEIIDPELTIDRALETYLKKGYSREWINQRLQAIQVRKELTDTWQDHGVEKGKEYAILTNEITKAWSGMTTREYKDLKGLKKENLRDNMSTLELVLNMLAEATTTELTNATHPQGLEENKKVAKRGGSIAGNARKEIEQETGKSVITSKNAIDFVKLIEDVSSKEFEDKDKKDKD | not soluble
6 | MGSDKIHHHHHHLRIEQKLWRENTGWSDLSPQVDGLMPQLLIVFGTRKYLQEEVRFEEIKGFYPGAHIFGCSTAGEICATNVFEDALAITALEFEHTRIESRQIHLSQVQNSFQAGEYLASSLTHDDLSHVLVLSDGLHVNGSELLQGLTSSLPPGIAITGGMAGDGVSFEETLVFLDAPPTPDTIAVLGFYGNHLRVGYGSMGGFDPFGPKRLITRSAANVLYEMDGRSALELYKKYLGEHAEGLPATGVFFPLSISGEEVAESLVRTILAVNEEEQSLTFGGDVPTGAYARMMKANLDRLIDGAVTAAESILSVVNNASPELAILISCFGRRSILKQRTEEEVEAVSDVFGSGCMLTGFYSYGEISPFKPGEKPEFHNQTMTITTFREV | not soluble
7 | MGSDKIHHHHHHLTRREVVGLKLGDLMPRDLLKQELFVQDLKSHINDNVEIILKIRSKKLQETKDSKKFLIMTLEDRTGTVRAVDWYNAELNDQRLKEGNVVRVKGRVVFFENRIQINVDNDYGAIKILKSDEYDYTKFVAQSKKDLEILKKKLFVLLDQIKDQHYKKLLKAFFENKEFSEKFFRSPAGMRVHHAYIGGLLEHSVTVAEICKEISKYYSLDRDLLITGALLHDVGKVEEYRITESGIEVTTEGELKGHIAIGAAMVREMAKKLSIPEHKILELEHIILSHHGELEWGSPVVPKTIEALIVHHVENLDSKIARFIEVMESSESNQGWTEYDRNLGRRIFLRGGGTIVSLTV | not soluble
8 | MGSDKIHHHHHHLTVPKKLLLSDLLKHNVRCENGIDHGPVITPWMHPPVHRILGFISRPSNLRLEREVWRLDQLKGINQQEVYVKGVCSVSDEQTLDRFPTLMNANVFNKSGQKIGLIADFLFEPKKGNIQYYLVSRSNPLIPGTSRWLLSIDQIIDKQPGSISCDIETFEDLPIQKASLKEEFLSKSRKWKAQFQDLTYNASDKLEGWIDDQISESDNDSYEMLNDDPSYDDWIDNLDIDSSEEFNRMNKSKKNTNSTNERDLDPWI | not soluble
9 | MGSDKIHHHHHHLYSFTIASDTIELVKSLHYSILVLNMEAEEMFSKKQDPFAVKLSEIAGHLQRTSQFFVDFKINGIADVKEFAHKVKDFETAGDDLMHQLIIDLNNAFITPIDREDLLALANSLDDVLDGFEECSAIFEIYNIVQADEHMIRFVDEIHIAVNELALSMDLLVARKLQPMREHVIKVKEQETICDNLRRKSIKALFATETDPIKIIQYKEIYESLESIADYCQDAANVIETIIMKNA | not soluble
10 | MGSDKIHHHHHHMAAEALADEHLVMLAYRDPAIGDHIDVQKVRLPFRWEFDLPTIFSLVRLVWRKKIDILIPTKRKDYVLAGLVCRLTGAANILRLGIDRPLKNTPVQRLIYGWLADGIIVNADKIRRTLALSPWIDPDKVRVIYNGIDREKLEPDSVLPCKKPFSFTIGAAGALIPRKGFDYLIRSFARFSAGSNEITDAGLVIAGTGPERESLEKLAADLGISGRVRFTGHLTNPYPVMRACDLFVSASTSEGLANVLLESMALHCVPVSTLSGGADELIEDGRNGFLVRYGDEKRLAEIFSELYKNPGKIASVAANAHQTIMQRFSIELMRKDLFEFCSEINDRKKGT | not soluble
11 | MGSDKIHHHHHHMAEGSSSSSLTRLMSILDIFTETRPEWSSDDMMTELGYPRPTLYRYLKVLTDAGMLASNGHGIYTLGPKVVEMDHLLRLSDRLVAIGRPVVAQLTEQYACTAFLVRWYRNRLLCMHSETSLEAPLSSYPRGRVMPMNRGAIARTILAHLQSRKARKIIESFAPEGPEDARKAYIAEQAAALRSVRRNGYAIAFGEVTPGVVGVASPIFDEAAEPAGALCMTMRQEDCPHELRTLITQAVPAAANSITVTLRQSRHTGTDHTHLPLQEEVKDR | not soluble
12 | MGSDKIHHHHHHMAFIQPDLQFNPDTLDNLVIGIAADMGEHDSGAHHHSKAQLLYASAGCMRFYLADTQVVLPPTRAAWLPAGVVHHVTMRNVAAYRSLYFEPETVASLPSRVTIFHVNPLLKALIDTMSFWPWDKPRQSQHNAFSLLCEELENATAENLVLPLPQDKRLKTWLKQLQQKKQPANLKKMAIEIGASERTISRIFNAQTGMAYQAWRQQWRLLSAIEQLAAGASVAQVGFNLQFSSDSAFISFFKQYTGTTPAQYFKSPSV | not soluble
13 | MGSDKIHHHHHHMAFTHTVGQHRHVFADLRTLLAKASPARSGDYLAGIAAASEEERMAARMALAAVPLTQFLSEALVPYEDDEVTRLIVDSHDAVAFAEIASLTVGDFRNWLLLHETDSTTLATVARGITPEMAAAVSKLMRNQDLIAVARKCHVVTRFRSTVGLPGRLSVRLQPNHPTDDPKGIAASIIDGLMYGCGDATIGVNPVSDSLGAIVSLLRMIDDLRCRYDIPTQSCVLTHVTHTLRAMEQGAPVDLVFQSVAGSERANAAFGISLSLLAEAHDAAQALARGTVGDNVMYFETGQGSALSANAHHGVDQQTMEARAYAVARRFSPLLVNTVVGFIGPEYLYDGKQIIRAGLEDHFCGKLLGVPMGCDVCYTNHAEADQDDMDTLLTLFGVAGINFIMGVPGADDIMLNYQSTSFHDALYLREVLGLRPAPEFEAWLQRMGIADGSGRLLEPAERQPLLELAHTL | not soluble
14 | MGSDKIHHHHHHMAGNTIGQLFRVTTFGESHGLALGCIVDGVPPGIPLTEADLQHDLDRRRPGTSRYTTQRREPDQVKILSGVFEGVTTGTSIGLLIENTDQRSQDYSAIKDVFRPGHADYTYEQKYGLRDYRGGGRSSARETAMRVAAGAIAKKYLAEKFGIEIRGCLTQMGDIPLDIKDWSQVEQNPFFCPDPDKIDALDELMRALKKEGDSIGAKVTVVASGVPAGLGEPVFDRLDADIAHALMSINAVKGVEIGDGFDVVALRGSQNRDEITKDGFQSNHAGGILGGISSGQQIIAHMALKPTSSITVPGRTINRFGEEVEMITKGRHDPCVGIRAVPIAEAMLAIVLMDHLLRQRAQNADVKTDIPRW | not soluble
15 | MGSDKIHHHHHHMAGRRAIAQNLLISNNDRQERTTRMNDKRNCFLPHDKLQHLIDSLQNAGYSCVGPQVRDGAIVYDVLTRAEQLPWGMRDHQEPGGYRLEQIPERKAFAFANGPQGIKPLLFKPQETVWRVERDEQGKLCFKPHQPDETPVAIIGSRACDLAAMSIQDKVFIENNKPDPRYKRRREQLFVVAVNCTYSSANCFCVSAGTGPAVNNSFDILMTEIEDGFVVEAGSDKGKKIMNQLDLHDAKSAQCTDAQNNVKQAAALQTKRIPLDNKRDLRDLLFSNLNHTRWDDVAERCLSCGNCTLVCPTCFCHSEVEKPGLDGCTSEHHREWDSCFTTGHTYLNGKIIRDDTKKQYRQWLTHKVGSWFDQFDTSGCVGCGRCVTWCPVGIDITEELAAISGESNARKIENE | not soluble
16 | MGSDKIHHHHHHMAIRAKTNNLIQIRPLTGRRLANSEHNRQEMKNGATVLTSKPQRLVFELTNACNLNCLMCGRNSATFELTRFNSEWFKKFEPIMSDIEEVTLMGWGEPTIHPQFKEMLQYLHERGIRKYFCTNGMRLDVLKDAIFDYEVDVFAVSMDGADAKTNEFLRRGLNYQKVIEGLKAITNEKALRGLNFPHINFVMTMMKSNIRQLPDMVDLAAELGLNEVKGVFLTAFSENLLEETLFDDMDLVRYCFGQAEERAAKLGILLKLPHQRGEDPAGDAAHKPCFTAWRDFFLGSDGYVRACMSSPEKLFHIDQYPDFESMWNSREYQEWRAQVNVPGKMCPSCGRCYQSSFANWNKEHAFIQIDTEFSPKWEK | not soluble
17 | MGSDKIHHHHHHMAKIFDIKYGNDEKQKLDLYLQDSVAPLVFYTHGGGWWQGDKRKDTKIFDSLFSAGFSVASVNYRLADKNNPYPAQLDDCHSALTFLQQSDYKFRKDKIALLGASSGANISVSLSIETGYPTVSWSGQFDFKGFLKTHTAITGRKAVDNPDPDKGSRQQSYYKWLLEKLFNGDLSRVGEATLQHKITSKTGPVLLINSAAELAPVMEVYKMQEAYLENGIEVDTIIFPGDRHALGYADDALKPTIDFLETHLQ | not soluble

— the DeepSol protein solubility set
